Experimental findings from patent publication US20230399371A1, “IL-12 COMPOSITIONS AND METHODS OF USE THEREOF” (published 2023) are described below.

The test addresses IL-12Rβ1/IL-12Rβ2 receptor complex (human, UniProt P42701). The test is described as follows: cell-based or functional assay.

B1: P36693671 (other)
chain 1: QVQLVQSGAEVKKPGASVKVSCKASGYTFTMNIIHWVRQAPGQGLEWMGWIHPGSGAIKYAQKLQGRVTMTTDTSTSTAYMELRSLRSDDTAVYYCARHGGTGRGAMDYWGQGTLVTVSSASTKGPSVFPLAPSSKSTSGGTAALGCLVKDYFPEPVTVSWNSGALTSGVHTFPAVLQSSGLYSLSSVVTVPSSSLGTQTYICNVNHKPSNTKVDKKVEPKSCDKGGGGSSGRSDNRGGGGSIWELKKDVYVVELDWYPDAPGEMVVLTCDTPEEDGITWTLDQSSEVLGSGKTLTIQVKEFGDAGQYTCHKGGEVLSHSLLLLHKKEDGIWSTDILKDQKEPKNKTFLRCEAKNYSGRFTCWWLTTISTDLTFSVKSSRGSSDPQGVTCGAATLSAERVRGDNKEYEYSVECQEDSAAPAAEESLPIEVMVDAVHKLKYENYTSSFFIRDIIKPDPPKNLQLKPLKNSRQVEVSWEYPDTWSTPHSYFSLTFSVQVQGQDQDEKKDRVFTDKTSATVICRKNASISVRAQDRYYSSSWSEWASVPCS
chain 2: EIVLTQSPGTLSLSPGERATLSCRASQSVSTSAYSYMHWYQQKPGQAPRLLIYLASNLESGIPDRFSGSGSGTDFTLTISRLEPEDFAVYYCQQSRELPYTFGQGTKLEIKRTVAAPSVFIFPPSDEQLKSGTASVVCLLNNFYPREAKVQWKVDNALQSGNSQESVTEQDSKDSTYSLSSTLTLSKADYEKHKVYACEVTHQGLSSPVTKSFNRGECGGGGSPLGLAGRNLPVATPDPGMFPCLHHSQNLLRAVSNMLQKARQTLEFYPCTSEEIDHEDITKDKTSTVEACLPLELTKNESSLNSRETSFITNGSCLASRKTSFMMALCLSSIYEDLKMYQVEFKTMNAKLLMDPKRQIFLDQNMLAVIDELMQALNFNSETVPQKSSLEEPDFYKTKIKLCILLHAFRIRAVTIDRVMSYLNAS
Regarding B1, the “IFN-γ secretion by NK92MI cells (ELISA, 48 hrs)” value is about 70 fold lower.
